The values below come from patent publication US9790551B2, “Use of TRPC6 mRNA levels in peripheral blood cells for early detection/diagnosis of senile dementia” (Aging Wise Biotechnology, Inc., priority 2013, dated 2017).

What all share (type): cell-based
Assay [1] concerns Aβ levels in HEK293APP stable cells. Briefly: Aβ ELISA of culture medium, HEK293APP stable cells transfected with TRPC plasmids. The conditions noted are these: Table 1; HEK293APP stable cell, 1 ug plasmid, medium ELISA after 48 hr; empty vector = 1. On the procedure:
(§1) Upon collecting the culture medium of the cells, Aβ40 and Aβ42 levels were quantified with sandwich ELISA kit, respectively (purchased from Invitrogen). The forebrain of the mouse was dissected and separated, and then homogenized with GuHCL. After that, total Aβ was determined by ELISA. For determining TBST(Tris-Buffered Saline and 1% TritonX100, 1% SDS, 1% DOC) soluble and insoluble Aβ, upon TBST homogenation and centrifugation of the forebrain of the mouse, the supernatant was determined for TBST soluble Aβ by ELISA, and the precipitate was determined for TBST insoluble Aβ by ELISA upon another GuHCL homogenate.
(§2) HEK293APP stable cell line was cultured in DMEM culture solution (containing 200 ng/ml G418) with 10% FBS. C0S7C99 cells were cultured in MEM/F12 culture solution (containing 0.4 ug/ml hygromycin B) with 5% FBS, 1% NEAA, and 200 mM Glutamax. All the transfection was conducted by using Lipofectamin 2000 (Invitrogen).
HEK293 cells were inoculated to 60 mm dishes. When the density was close to 80%, 4 ug APP plasmid was transfected with Lipofectamine 2000. After 4 h, the culture medium was replaced and 400 ng/ml of G418 was added. Cells were passage 2 days later and G418 in the culture was maintained at 400 ng/ml. After 2-3 weeks, the cells not transected died gradually, and the survived cells were HEK293 cells expressing APP. Then, G418 was reduced to and maintained at 200 ng/ml.
TRPC6 or TRPC5 was overexpressed in HEK293APP stable cell lines respectively (Cells were passaged into 12-well plates till the densities were close to 80%. Each well was transfected with 1 ug plasmid using Lipofectamine 2000, and the Aβ levels in the medium were determined with ELISA after 48 hr).
Afterwards, HEK293APP stable cells were passaged in 12-well plate till the density approached 80%. Each well was transfected with lug plasmid using Lipofectamine 2000, and the Aβ levels in the culture medium were determined with ELISA after 48 h. The targeting fragment was primarily narrowed down to 437-507aa.
The […] of TRPC6 contains the first transmembrane regions(TM1), the first extracellular loop (Loop1), and the second transmembrane regions (TM2). To further narrow down the active domain, we constructed 3 variant plasmids, with TM2 region replacement by TM1 region (C6-mut1), reversal of TM2 sequence (C6-mut2) or point mutations within TM2 region(C6-mut3). Then HEK293APP stable cells were passaged in 12-well plate. When the density was close to 80%, every well was transfected with lug plasmid using Lipofectamine 2000, and the Aβ levels in the medium were determined with ELISA after 48 h. The active fragment was further narrowed down to 487-507aa.
On the technique in general: An ELISA detects its analyte on a solid surface through an enzyme-linked reagent.

In assay [2] the test system is γ-secretase cleavage of C99. Briefly: Aβ ELISA, COS7-C99 stable cells overexpressing TRPC6. The conditions noted are these: Table 3, 1 ug plasmid, 48 h, empty vector = 1. The procedure: as §1, §2
C0S7C99 cells overexpressing TRPC6 were obtained by cell-transfection through general method 9 (n=5). The cells were passaged in 12-well plate till the density approached 80%. Each well was transfected with 1 ug plasmid using Lipofectamine 2000, and the Aβ levels in the culture medium were determined with ELISA after 48 h.

The subject of assay [3] is γ-secretase cleavage of C99. Briefly: C99-GVP/UAS-luciferase reporter assay with TRPC6 plasmid. The conditions noted are these: Table 3; luciferase activity, lysed 24 hours after transfection; empty vector = 1. On the procedure:
HEK293APP were transfected with C99-GVP/UASLuciferase, CTRL or TRPC6 plasmids, and were lysed 24 hours later. The luciferase activities were determined using the Luciferase assay system (purchased from Promega). β-gal was co-transfected to normalize the transfection efficiency.
On the technique in general: A reporter such as luciferase makes a cellular process visible.

Assay [4] relates to γ-secretase cleavage of Notch. Description: NICD immunoblotting after co-transfection of TRPC6 and Notch plasmids. The note with it: immunoblotting 48 h after transfection, 1 ug TRPC6 and 1 ug Notch plasmids. On the procedure:
Cells were passaged in 12-well plate till the density approached 80%. Each well was transfected with 1 ug of TRPC6 and 1 ug of Notch plasmids using Lipofectamine 2000. Immunoblotting was used to examine the expression of Notch protein 48 h later. Wherein, NICD (notch intracellular domain) is the intracellular fragment produced by γ-secretase cleavage of Notch ΔE-myc, reflecting the level of γ-secretase cleavage of Notch.
(In western blotting, separated proteins are transferred to a membrane and probed.)

B1: TRPC6: transient receptor potential canonical 6 protein, overexpressed from plasmid; SEQ ID NO.:5 (protein, listed as Mus musculus)
chain: MSQSPRFVTRRGGSLKAAPGAGTRRNESQDYLLMDELGDDGYPQLPLPPYGYYPSFRGNENRLTHRRQTILREKGRRLANRGPAYMFNDHSTSLSIEEERFLDAAEYGNIPVVRKMLEECHSLNVNCVDYMGQNALQLAVANEHLEITELLLKKENLSRVGDALLLAISKGYVRIVEAILNHPAFAEGKRLATSPSQSELQQDDFYAYDEDGTRFSHDVTPIILAAHCQEYEIVHTLLRKGARIERPHDYFCKCTECSQKQKHDSFSHSRSRINAYKGLASPAYLSLSSEDPVMTALELSNELAVLANIEKEFKNDYRKLSMQCKDFVVGLLDLCRNTEEVEAILNGDAETRQPGDFGRPNLSRLKLAIKYEVKKFVAHPNCQQQLLSIWYENLSGLRQQTMAVKFLVVLAVAIGLPFLALIYWCAPCSKMGKILRGPFMKFVAHAASFTIFLGLLVMNAADRFEGTKLLPNETSTDNARQLFRMKTSCFSWMEMLIISWVIGMIWAECKEIWTQGPKEYLFELWNMLDFGMLAIFAASFIARFMAFWHASKAQSIIDANDTLKDLTKVTLGDNVKYYNLARIKWDPTDPQIISEGLYAIAVVLSFSRIAYILPANESFGPLQISLGRTVKDIFKFMVIFIMVFVAFMIGMFNLYSYYIGAKQNEAFTTVEESFKTLFWAIFGLSEVKSVVINYNHKFIENIGYVLYGVYNVTMVIVLLNMLIAMINSSFQEIEDDADVEWKFARAKLWFSYFEEGRTLPVPFNLVPSPKSLLYLLLKFKKWMCELIQGQKQGFQEDAEMNKRNEEKKFGISGSHEDLSKFSLDKNQLAHNKQSSTRSSEDYHLNSFSNPPRQYQKIMKRLIKRYVLQAQIDKESDEVNEGELKEIKQDISSLRYELLEEKSQNTEDLAELIRKLGERLSLEPKLEESRR
Take B1: in assay [1], the Aβ40 is 0.6839 ± 0.07359 and the Aβ42 was 0.6734 ± 0.06994. Besides, in assay [2], the Aβ40 is 0.5949 ± 0.06435 and the Aβ42 worked out at 0.5805 ± 0.04428. This molecule had a C99-GVP/UAS-Luciferase reporter system in assay [3] of 0.4650 ± 0.02628. Further, the “NICD level (γ-secretase cleavage of NotchΔE-myc)” value in assay [4] was “did not affect NICD level”.
